Results reported in publication PMC5643300.

Columns and labels:
[1] = target: MOSP expressed in E. coli with a PelB signal sequence (Treponema denticola); assay: native gel or EMSA; BN-PAGE and immunoblot of the 2% DDM extract of the outer membrane fraction of E. coli expressing PelB-MOSP
[2] = target: MOSP^C, C-terminal domain of the major outer sheath protein (recombinant, refolded) (Treponema denticola); assay: negative-stain TEM of nanodiscs; MOSP^C refolded in DDM and incorporated into large MSP1E3D1 (E3D1) DMPC nanodiscs; SEC peak fractions, uranyl formate stain, averaged images
[3] = target: MOSP^C, C-terminal domain of the major outer sheath protein (recombinant, refolded) (Treponema denticola); assay: SEC + other: negative-stain TEM of nanodiscs; MOSP^C incorporated into small D7 DMPC nanodiscs, S200 column, Tris-NaCl buffer pH 7.5; peaks examined by SDS-PAGE and TEM
[4] = target: major outer sheath protein, native outer membrane conformer (Treponema denticola ATCC 35405 (endogenous)); assay: SDS-PAGE without boiling, immunoblot; NP-40 supernatant (OM conformer) and TX-114 aqueous phase (periplasmic conformer) of T. denticola in Laemmli buffer, with and without boiling; antisera to MOSP^Fl, PrtP, PrcA1, PrcA2, PrcB
[5] = target: major outer sheath protein, native outer membrane conformer (Treponema denticola ATCC 35405 (endogenous)); assay: SDS-PAGE without boiling, immunoblot; 2% DDM-solubilized pellet of sonicated T. denticola, run with and without boiling, anti-MOSP^Fl; TX-114 phase partitioning of the same material
[6] = target: major outer sheath protein, native periplasmic conformer (Treponema denticola ATCC 35405 (endogenous)); assay: SDS-PAGE without boiling, immunoblot; NP-40 supernatant (OM conformer) and TX-114 aqueous phase (periplasmic conformer) of T. denticola in Laemmli buffer, with and without boiling; antisera to MOSP^Fl, PrtP, PrcA1, PrcA2, PrcB
[7] = target: major outer sheath protein, native periplasmic conformer (Treponema denticola ATCC 35405 (endogenous)); assay: SDS-PAGE without boiling, immunoblot; 2% DDM-solubilized pellet of sonicated T. denticola, run with and without boiling, anti-MOSP^Fl; TX-114 phase partitioning of the same material

In the case of “MOSP expressed in E. coli with a PelB signal sequence (natural protein)”, the stoichiometry N [1] was 3.
Substance “MOSP^C, C-terminal domain of the major outer sheath protein (recombinant, refolded) (domain or fragment)” has a stoichiometry N [2] of 3 and a stoichiometry N [3] of 3.
Work on “major outer sheath protein, native outer membrane conformer (natural protein)” yielded a stoichiometry N [4] of 3 and a stoichiometry N [5] of 3.
Work on “major outer sheath protein, native periplasmic conformer (natural protein)” yielded a stoichiometry N [6] of 3 and a stoichiometry N [7] of 3.
